Assay results from patent US20240317834A1, “COMPOSITIONS AND METHODS FOR NEUROLOGICAL DISEASES” (CODA BIOTHERAPEUTICS, INC., priority 2020, published 2024).
Positions count from the first letter of the chain named. Names may count otherwise.

B1: CODA1047: engineered chimeric LGIC receptor, R101F, Y210V in SEQ ID NO: 33 (protein)
chain: MRCSPGGVWLALAASLLHVSLQGEFQRKLYKELVKNYNPLERPVANDSQPLTVYFSLSLLQIMDVDEKNQVLTTNIWLQMSWTDHYLQWNVSEYPGVKTVFFPDGQIWKPDILLYNSADERFDATFHTNVLVNSSGHCQYLPPGIFKSSCPMDLKNFPMDVQTCKLKFGSWSYGGWSLDLQMQEADISGYIPNGEWDLVGIPGKRSERFVECCKEPYPDVTFTVTMRRRMGYYLIQMYIPSLLIVILSWISFWINMDAAPARVGLGITTVLTMTTQSSGSRASLPKVSYVKAIDIWMAVCLLFVFSALLEYAAVNFVSRQHKELLRFRRKRRHHKSPMLNLFQEDEAGEGRFNFSAYGMGPACLQAKDGISVKGANNSNTTNPPPAPSKSPEEMRKLFIQRAKKIDKISRIGFPMAFLIFNMFYWIIYKIVRREDVHNQ
modifications: synthetic sequence of chimeric LGIC
B2: CODA1053: engineered chimeric LGIC receptor, R101M, L131A in SEQ ID NO: 33 (protein)
chain: B1 chain with F101M, L131A, V210Y
modifications: synthetic sequence of chimeric LGIC
B3: CODA1138: engineered chimeric LGIC receptor, W77F, R101F, L131D in SEQ ID NO: 33 (protein)
chain: B1 chain with W77F, L131D, V210Y
modifications: synthetic sequence of chimeric LGIC
B4: CODA1157: engineered chimeric LGIC receptor, Q139E, S172D in SEQ ID NO: 33 (protein)
chain: B1 chain with F101R, Q139E, S172D, V210Y
modifications: synthetic sequence of chimeric LGIC

system: Lenti-X 293T cells; test: YFP fluorescence quenching anion reporter plate reader assay of engineered receptors stimulated with acetylcholine or a non-native ligand; assay type: cell-based; conditions: 1 nM CNL001, first column
Method in brief: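 Lenti-X 293T cells carrying a YFP anion reporter were transiently transfected with channel DNA and assayed the next day in HEPES-buffered ECS at pH 7.2. Ligand (acetylcholine or non-native ligand) was added in NaI-substituted ECS. Percent quench was the mean of the last 10 s relative to the 15 s pre-addition baseline.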

Row | Molecule | YFP fluorescence quenching using CNL001 [%]
1 | B1 | −7.82
2 | B2 | −8.554
3 | B3 | −6.175
4 | B4 | 68.362

same assay, conditions: 1 nM CNL001, second column

Row | Molecule | YFP fluorescence quenching using CNL001 [%]
5 | B1 | −8.382
6 | B2 | −13.711
7 | B3 | 5.89
8 | B4 | 69.495

same assay, conditions: 1 nM CNL002

Row | Molecule | YFP fluorescence quenching using CNL002 [%]
9 | B3 | −2.209

same assay, conditions: 1 nM brd

Row | Molecule | YFP fluorescence quenching using TC-5619/Bradanicline [%]
10 | B1 | −5.548
11 | B2 | 0.008

same assay, conditions: 3 nM brd

Row | Molecule | YFP fluorescence quenching using TC-5619/Bradanicline [%]
12 | B1 | −9.432
13 | B2 | 43.21

same assay, conditions: 3 nM var, first column

Row | Molecule | YFP fluorescence quenching using Varenicline
14 | B1 | −3.035
15 | B2 | 74.835
16 | B3 | 3.893
17 | B4 | −0.225

same assay, conditions: 3 nM var, second column

Row | Molecule | YFP fluorescence quenching using Varenicline
18 | B1 | −0.786
19 | B2 | 76.119
20 | B3 | 1.107
21 | B4 | −1.954

same assay, conditions: 10 nM CNL001, first column

Row | Molecule | YFP fluorescence quenching using CNL001 [%]
22 | B1 | −5.381
23 | B2 | 39.631
24 | B3 | −2.032
25 | B4 | 75.078

same assay, conditions: 10 nM CNL001, second column

Row | Molecule | YFP fluorescence quenching using CNL001 [%]
26 | B1 | −1.431
27 | B2 | 66.809
28 | B3 | 7.601
29 | B4 | 74.193

same assay, conditions: 10 nM CNL002

Row | Molecule | YFP fluorescence quenching using CNL002 [%]
30 | B3 | 43.044

same assay, conditions: 10 nM brd

Row | Molecule | YFP fluorescence quenching using TC-5619/Bradanicline [%]
31 | B1 | −3.068
32 | B2 | 77.672

same assay, conditions: 30 nM brd

Row | Molecule | YFP fluorescence quenching using TC-5619/Bradanicline [%]
33 | B1 | 2.368
34 | B2 | 76.277

same assay, conditions: 30 nM var, first column

Row | Molecule | YFP fluorescence quenching using Varenicline
35 | B1 | −5.181
36 | B2 | 77.608
37 | B3 | 0.972
38 | B4 | 1.269

same assay, conditions: 30 nM var, second column

Row | Molecule | YFP fluorescence quenching using Varenicline
39 | B1 | 0.669
40 | B2 | 79.015
41 | B3 | 0.872
42 | B4 | 5.972

same assay, conditions: 50 nM CNL001, first column

Row | Molecule | YFP fluorescence quenching using CNL001 [%]
43 | B1 | −0.999
44 | B2 | 82.122
45 | B3 | 9.263
46 | B4 | 77.481

same assay, conditions: 50 nM CNL001, second column

Row | Molecule | YFP fluorescence quenching using CNL001 [%]
47 | B1 | 3.909
48 | B2 | 82.031
49 | B3 | 4.423
50 | B4 | 77.205

same assay, conditions: 50 nM CNL002

Row | Molecule | YFP fluorescence quenching using CNL002 [%]
51 | B3 | 73.418

same assay, conditions: 50 nM abt

Row | Molecule | YFP fluorescence quenching using ABT-126 [%]
52 | B1 | −14.1
53 | B2 | −27.01
54 | B3 | −11.71
55 | B4 | −26.77

same assay, conditions: 100 nM CNL001, first column

Row | Molecule | YFP fluorescence quenching using CNL001 [%]
56 | B1 | −0.823
57 | B2 | 83.312
58 | B3 | 24
59 | B4 | 77

same assay, conditions: 100 nM CNL001, second column

Row | Molecule | YFP fluorescence quenching using CNL001 [%]
60 | B1 | −5.885
61 | B2 | 83.986
62 | B3 | 30.448
63 | B4 | 77.042

same assay, conditions: 100 nM CNL002

Row | Molecule | YFP fluorescence quenching using CNL002 [%]
64 | B3 | 81.66
65 | B4 | 80.62

same assay, conditions: 100 nM abt

Row | Molecule | YFP fluorescence quenching using ABT-126 [%]
66 | B1 | −11.72
67 | B2 | −18.76
68 | B3 | −5.13
69 | B4 | −24.64

same assay, conditions: 100 nM brd

Row | Molecule | YFP fluorescence quenching using TC-5619/Bradanicline [%]
70 | B1 | 47.529
71 | B2 | 76.856

same assay, conditions: 300 nM abt

Row | Molecule | YFP fluorescence quenching using ABT-126 [%]
72 | B1 | −12.98
73 | B2 | −17.8
74 | B3 | 15.09
75 | B4 | −10.64

same assay, conditions: 300 nM brd

Row | Molecule | YFP fluorescence quenching using TC-5619/Bradanicline [%]
76 | B1 | 74.413
77 | B2 | 75.32

same assay, conditions: 300 nM var, first column

Row | Molecule | YFP fluorescence quenching using Varenicline
78 | B1 | −2.748
79 | B2 | 80.71
80 | B3 | 2.282
81 | B4 | 6.84

same assay, conditions: 300 nM var, second column

Row | Molecule | YFP fluorescence quenching using Varenicline
82 | B1 | −6.708
83 | B2 | 79.002
84 | B3 | −0.288
85 | B4 | 5.943

same assay, conditions: 500 nM var, first column

Row | Molecule | YFP fluorescence quenching using Varenicline
86 | B1 | −9.123
87 | B2 | 78.709
88 | B3 | 3.637
89 | B4 | 8.717

same assay, conditions: 500 nM var, second column

Row | Molecule | YFP fluorescence quenching using Varenicline
90 | B1 | −9.869
91 | B2 | 78.884
92 | B3 | −1.804
93 | B4 | 6.41

same assay, conditions: 1 uM CNL001, first column

Row | Molecule | YFP fluorescence quenching using CNL001 [%]
94 | B1 | 1.638
95 | B2 | 84.363
96 | B3 | 73.823
97 | B4 | 78.2

same assay, conditions: 1 uM CNL001, second column

Row | Molecule | YFP fluorescence quenching using CNL001 [%]
98 | B1 | 3.483
99 | B2 | 83.877
100 | B3 | 73.271
101 | B4 | 76.244

same assay, conditions: 1 uM CNL002

Row | Molecule | YFP fluorescence quenching using CNL002 [%]
102 | B3 | 81.69
103 | B4 | 81.32

same assay, conditions: 1 uM abt

Row | Molecule | YFP fluorescence quenching using ABT-126 [%]
104 | B1 | −15.09
105 | B2 | −6.55
106 | B3 | 56.63
107 | B4 | 19.57

same assay, conditions: 1 uM var, first column

Row | Molecule | YFP fluorescence quenching using Varenicline
108 | B1 | −6.702
109 | B2 | 79.688
110 | B3 | −1.84
111 | B4 | 5.635

same assay, conditions: 1 uM var, second column

Row | Molecule | YFP fluorescence quenching using Varenicline
112 | B1 | −7.26
113 | B2 | 80
114 | B3 | 6.36
115 | B4 | 7.068

same assay, conditions: 10 uM abt

Row | Molecule | YFP fluorescence quenching using ABT-126 [%]
116 | B3 | 75.93
117 | B4 | 55.64

same assay, conditions: TC-6683 30 nM

Row | Molecule | percent quench of YFP fluorescence, 30 nM TC-6683 [%]
118 | B1 | −24.195

same assay, conditions: TC-6683 300 nM

Row | Molecule | percent quench of YFP fluorescence, 300 nM TC-6683 [%]
119 | B1 | −24.234

same assay, conditions: TC-6683 3 uM

Row | Molecule | percent quench of YFP fluorescence, 3 uM TC-6683 [%]
120 | B1 | −21.291

same assay, conditions: TC-6683 30 uM

Row | Molecule | percent quench of YFP fluorescence, 30 uM TC-6683 [%]
121 | B1 | −16.363

same assay, conditions: TC-6683 100 uM

Row | Molecule | percent quench of YFP fluorescence, 100 uM TC-6683 [%]
122 | B1 | −24.9

same assay, conditions: acetylcholine 10 uM

Row | Molecule | percent quench of YFP fluorescence, 10 uM ach [%]
123 | B1 | −4.26
124 | B2 | −3.98
125 | B3 | −12.92
126 | B4 | −36.89

same assay, conditions: acetylcholine 30 uM

Row | Molecule | percent quench of YFP fluorescence, 30 uM ach [%]
127 | B3 | −15.36
128 | B4 | −37.78

same assay, conditions: acetylcholine 100 uM

Row | Molecule | percent quench of YFP fluorescence, 100 uM ach [%]
129 | B1 | −13.05
130 | B2 | −11
131 | B3 | −19.35
132 | B4 | −25.67

same assay, conditions: acetylcholine 300 uM

Row | Molecule | percent quench of YFP fluorescence, 300 uM ach [%]
133 | B1 | −11.73
134 | B2 | −7.92
135 | B3 | −14.79
136 | B4 | −18.94

same assay, conditions: acetylcholine 500 uM

Row | Molecule | percent quench of YFP fluorescence, 500 uM ach [%]
137 | B1 | −10.75
138 | B2 | 7.36

same assay, conditions: acetylcholine 1 mM

Row | Molecule | percent quench of YFP fluorescence, 1 mM ach [%]
139 | B1 | −8.81
140 | B2 | 57.28
141 | B3 | 37.5
142 | B4 | 16.38

same assay, conditions: acetylcholine 3 mM

Row | Molecule | percent quench of YFP fluorescence, 3 mM ach [%]
143 | B1 | −6.77
144 | B2 | 60.54
145 | B3 | 61.73
146 | B4 | 45.71

same assay, conditions: acetylcholine 10 mM

Row | Molecule | percent quench of YFP fluorescence, 10 mM ach [%]
147 | B1 | −1.03
148 | B2 | 79.46
